{"source": "paper PMC11737846", "target": "recombinant hemolysin co-regulated protein 1 variant B (rHcp1^(variant B)) of Burkholderia pseudomallei (Burkholderia pseudomallei (clinical isolate DR0089))", "test": "[…]) at 10 mg/ml in PBS pH 7.2; […]"}
{"substance": "recombinant hemolysin co-regulated protein 1 variant B (rHcp1^(variant B)) of Burkholderia pseudomallei (natural protein)", "values": [{"measurement": "stoichiometry N", "result": 6}]}
